Data on one protein can be found in paper PMC3199254.

Substrate in this data set: O=P(O)(O)O
Put plainly: cells, lysate or membranes. The following applies: intact delta-Pst1 cells grown 24 h in Pi-limiting BG-11; room temperature; transport Km.

B1: Pst2 (Synechocystis sp. PCC 6803 substr. Kazusa) (protein)
chain: GTLNGAGASFPAPLYQRYFAEYKKATGNTVNYNSVGSGAGIRQFIGETVDFGATDAVPTSAQRQQMKRGVVMVPTAGGAVAVVYNLPGKKVQLSRIALGKIFTGELKTWNQVDSKLPNTPIRVVVRADGSGTTDIFTSHLSAISSTFRSKIGASQDPNWGFQVLKGPKNDGVAATVKQTPGAIGYVQDTFARRNEGPNLQTAKVQNKAGQYVEPSLAEANKAISGAKFDANFVAEISDPASGYPIVGLTWLLVYQNNKNANVAKDVKALVRWILTTGQNHNTQLEYTKIPPAVAQRVIAAVNKIK
One may read the Km as the concentration of substrate that gives half-maximal velocity. Turning to B1, the Km came out at 0.13 µM.
